# Assay results as given in US8822640B2, “Tetrameric streptavidin mutein with reversible biotin binding capability” (UTI Limited Partnership, priority 2011, dated 2014).
# B1: SAV mutein from Roche: commercially available streptavidin mutein with reversible biotin binding, changes S27R, S45R and L110W (U.S. Pat. No. 6,312,916 B1) (protein)
# chain: AEAGITGTWYNQLGRTFIVTAGADGALTGTYERAVGNAESRYVLTGRYDSAPATDGSGTALGWTVAWKNNYRNAHSATTWSGQYVGGAEARINTQWLWTSGTTEANAWKSTLVGHDTFTKVKPSAAS
# Experiments:
# [1] = Biotin binding data taken from literature / U.S. Pat. No. 6,312,916 B1; conditions: for t1/2, half-life of biotin in the SAV-biotin complex: estimated as 0.693/koff/60 from the cited koff
# [2] = tested on: biotinylated protein G and biotinylated IgG; assay: Mutein-agarose affinity matrix: purification of biotinylated proteins, matrix stability and reuse; conditions: comparison of FIGS. 7 and 10
# Procedure: Other methods. BIAcore biosensor for determining the kinetic parameters, preparation of streptavidin-agarose matrix and purification of biotinylated proteins were performed as previously described (Wu and Wong, 2005a; Wu and Wong, 2005b).
# Stable subunit interactions in the 8-aa-loop-H127 mutein. The purified 8-aa-loop-H127C mutein can be immobilized to the agarose matrix with an estimated concentration of 3.8 mg/ml of settled agarose beads. […] Since it is likely that only one subunit in an tetrameric 8-aa-loop-H127C mutein was chemically coupled to the matrix (the other three subunits associated with the immobilized subunit via non-covalent interactions), this observation illustrates that the subunit interactions between the subunits in the tetrameric 8-aa-loop-H127C mutein were stable enough and the non-covalently associated subunits were not washed off from the column under the conditions used for the binding, washing and elution processes.
# Application of the 8-aa-loop-H127C mutein-agarose matrices for purification of biotinylated protein G and biotinylated IgG. […] The bound biotinylated proteins could be eluted off from the column using 4 mM biotin (FIGS. 7 and 8).
# [3] = data from U.S. Pat. No. 6,312,916 B1, cited from earlier work
molecule,measurement,setting,value
B1,"t1/2, half-life of biotin in the SAV-biotin complex",[1],1.96 min
same,"t1/2, half-life of biotin in the SAV-biotin complex",[1]; listed as Roche mutein,1.9 min
same,biotin binding affinity lower than that of the 8-aa-loop-H127C mutein,[1]; ratio of Kd values,~10 fold
same,half-life of biotin in the SAV-biotin complex shorter than that of the 8-aa-loop-H127C mutein,[1]; ratio of t1/2 values,~14 fold
same,binding capacity of the matrix for biotinylated protein G,[2],significantly less than that of the 8-aa-loop-H127C mutein
same,ka or kon,[3],45000 M⁻¹ s⁻¹
same,kd or koff,[3],0.0059 s⁻¹
same,Kd,[3]; read-out: Kd (biotin binding affinity),130 nM
